According to the supplement of paper PMC10126150:
± gives the standard deviation of the averaged measurements.

Test system: ATP
Experiment: switch fluorescence ratio, 500 uM ATP over buffer (Cy3 cluster intensity, sum of 5 cycles each) (fold (ratio)); higher = stronger signal-on switching upon ATP binding; sequences stand for … in TCGTCGGCAGCGTCAGATGTGTATAAGAGACAGTTTTTTTTTTTTTTTTTTTTTTTTT…TC
Conditions: aptamer strand: ATP DNA aptamer (quencher-CACCTGGGGGAGTATTGCGGAGGAAGG + anchor), 100 nM annealed; ATP concentration: 500 uM
Method in brief: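 Clusters carrying Cy3-labelled switching strands on a modified Illumina MiSeq flow-cell were annealed to 100 nM quencher-labelled ATP aptamer and imaged in selection buffer. They were imaged again after 15 min with 500 uM ATP at 22 °C, over five buffer/ATP cycles with NaOH stripping and re-annealing in between. For each cluster, the fluorescence ratio is the summed Cy3 intensity of the target cycles divided by that of the buffer cycles, averaged per switch-domain sequence. Clusters outside 100-1000 RFU were left out.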
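Also: ATP exposure 15 min at 22 °C before imaging.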

Sequence	switch fluorescence ratio
AACCTTATTT	0.9965 ± 0.0022
ATTTGAAGAG	1.01 ± 0.014
CGCAATTCGA	3.57 ± 1.3
ATGTGTTTGC	0.99 ± 0.053
AATCTCCGAG	1.09 ± 0.031
TTAAGGAGTG	0.95 ± 0.0099
GGGGATACGG	1.026 ± 0.0047
ATCCATTCA	1.02 ± 0.0094
AGTTAATTTG	0.9823 ± 0.0097
AATAGGGCCT	1.02 ± 0.023
TTTTTAATGG	1.01 ± 0.034
GGTCCTGTTG	1.01 ± 0.035
TGTGGTGGTG	0.978 ± 0.049
GGGGGGACAG	1 ± 0.037
TTTAGATTGA	0.99606 ± 0.00096
TACGAACTAT	1.33 ± 0.052
GTTTGCTCCC	1.15 ± 0.086
TTGTGATGTG	0.986 ± 0.023
GGGAACCGGA	1.03 ± 0.17
ATGAGTGCTC	0.98 ± 0.0086
TTTCGGGTGC	1.05 ± 0.056
GTTTCGTCCA	2.1 ± 1.6
CAGTAGGCAG	0.95 ± 0.016
AAGATGCAGC	1.05 ± 0.12
TTGATCTAAT	1 ± 0.011

Sequence	switch fluorescence ratio
TAGAGTTGGG	0.986 ± 0.015
ATTAGATGTT	0.9635 ± 0.0029
TATATTACAG	1.05 ± 0.028
GTGTAAAGAC	1.03 ± 0.053
TCTGTCCG	1.05 ± 0.14
CATATTTCGC	1.03 ± 0.029
GATTTGTGTG	0.978 ± 0.034
TGCGGGGGAG	0.996 ± 0.02
AGATATGTGT	0.998 ± 0.013
TTTTTTGCCC	1.02 ± 0.048
TTGCAAGTCA	1.05 ± 0.018
GGAATGTCGG	0.962 ± 0.051
GGTTTATCAA	1.0008 ± 0.00076
ATTCCTCGAC	1.67 ± 0.11
TTAAGTACGA	1.27 ± 0.041
TATTTATCGG	0.991 ± 0.013
ATGGTGTATC	0.981 ± 0.026
CGTACAGATA	0.994 ± 0.027
TTCATTATTT	1 ± 0.024
TTGATATGAG	0.989 ± 0.048
CAAGTAGGGG	0.9765 ± 0.0015
AACTGTTGTA	0.986 ± 0.0024
ACATTTGGGA	0.964 ± 0.026
CCATTGAGAC	1.04 ± 0.029
GAGAGCTATA	1.07 ± 0.044

Sequence	switch fluorescence ratio
TTTCCTTGCT	1.49 ± 0.59
CTTGAATACT	1.05 ± 0.03
GAAGGCCTGT	0.9745 ± 0.0097
TCTGTGTTAT	1 ± 0.026
AAGGGTCTGG	0.986 ± 0.024
TTCAGAGGCG	1.04 ± 0.011
TTGAGGAAGT	1.06 ± 0.058
TTTATTGTAA	0.991 ± 0.031
AAGTTATGAC	1.03 ± 0.029
AGCGTGTGTG	1.05 ± 0.059
TTTATTTTAT	1.02 ± 0.057
CAGGGAAAGA	1 ± 0.011
TGCTGTGGAA	1.011 ± 0.0096
GATCGACTTT	0.958 ± 0.012
TCAGAATGCG	0.991 ± 0.045
ACCATACTGC	1.23 ± 0.12
GGTCAGGGTT	0.954 ± 0.035
GCTGTGTGTC	1.006 ± 0.0024
ATAGGGGGTA	1 ± 0.015
CAGGTATTAC	1.11 ± 0.026
GCGGTTCGTA	0.9699 ± 0.0018
TGTTGGAGCG	0.969 ± 0.011
GCTATTGTTG	1.03 ± 0.021
TTGGCGTTGG	0.987 ± 0.026
GCATTAAGTG	1 ± 0.024

Sequence	switch fluorescence ratio
TTGAACGGTG	1.03 ± 0.047
TTGGAATTCC	0.989 ± 0.05
TGTGTGTATG	0.999 ± 0.036
AGTTCATTGG	1.04 ± 0.059
GGCCAATCAG	1.018 ± 0.0024
GTTTAAAGGG	0.998 ± 0.013
GTAGTAGCCA	1.01 ± 0.033
ATGCACGTGG	1.008 ± 0.003
GTCTCAGGTT	1.04 ± 0.014
AGTAAAGGGT	0.999 ± 0.012
TTTATTCTAA	0.976 ± 0.02
GGTTCCGCGG	1.11 ± 0.025
GGAAGGGTCG	1.04 ± 0.022
TCTATTAGTA	0.932 ± 0.062
GCACCTCAAT	1.25 ± 0.037
TATCGGGGTT	0.98 ± 0.046
GGGGGTTATG	1.01 ± 0.024
GGGTGGGATG	0.984 ± 0.017
GCAAGTGTTC	1.01 ± 0.018
TGAAGACAAC	1.04 ± 0.025
AAGACGATGT	0.995 ± 0.013
TAATACGGCG	1.009 ± 0.01
CAGTCGTCCT	1.028 ± 0.0019
AGGGAGGTGC	1.02 ± 0.051
CGAGCAGAGT	1.13 ± 0.021
